Here are results for seven molecules from US20260274980A1 (BIOARCTIC, published 2026).

Assay [1] has as its target T1, human transferrin receptor 1 (hTfR1) on cell surfaces (human, UniProt P02786 1-760).
T1 construct: Endogenous receptor on hCMEC/D3, THP-1, K562 and Ramos cells; also called CD71; endogenous hTfR1
Briefly: flow cytometry on Ramos cells (hTfR1 on the surface), Fc receptors blocked, overnight at 4 °C, detection with anti-human IgG-Alexa Fluor 488. The method, then:
(§1) Binding to hTfR1 on cells was measured on the immortalized human B lymphocyte cell line Ramos (Sigma, cat: 85030802). This cell line is known for expressing high levels of hTfR1 on the cell surface. Fcγ receptors were blocked using Fc receptor blocker (Innovex biosciences, #NB309-4X-40) for 30 min at 4° C., after which the cells were washed in PBS. The cells were seeded in a 96 well V bottom plate (#249570, Thermo Scientific Nunc), and serially diluted Gen 2A constructs were added and the plate was incubated at 4° C. overnight. The cells were washed with PBS with 1% BSA and then fixed with freshly prepared 4% formaldehyde (Thermo Scientific Pierce, #28906) diluted in PBS for 15 min at room temperature. The cells were washed with PBS containing 1% BSA, and then stained. […] Staining was carried out for 30 min at 4° C. After incubation with the detection reagent, cells were washed with PBS containing 1% BSA. The cells were finally resuspended in 200 μl PBS with 1% BSA and acquired using a BD FACSLyric flow cytometer system (BD Biosciences). Samples were analyzed using flowJo software (BD Biosciences).
A general note: A flow cytometer gives signals particle by particle.

The target in assay [2] is T1, human transferrin receptor 1 (hTfR1) on …. Briefly: flow cytometry, Ramos cells. The method, then: as §1

T1 sequence (P02786 whole entry): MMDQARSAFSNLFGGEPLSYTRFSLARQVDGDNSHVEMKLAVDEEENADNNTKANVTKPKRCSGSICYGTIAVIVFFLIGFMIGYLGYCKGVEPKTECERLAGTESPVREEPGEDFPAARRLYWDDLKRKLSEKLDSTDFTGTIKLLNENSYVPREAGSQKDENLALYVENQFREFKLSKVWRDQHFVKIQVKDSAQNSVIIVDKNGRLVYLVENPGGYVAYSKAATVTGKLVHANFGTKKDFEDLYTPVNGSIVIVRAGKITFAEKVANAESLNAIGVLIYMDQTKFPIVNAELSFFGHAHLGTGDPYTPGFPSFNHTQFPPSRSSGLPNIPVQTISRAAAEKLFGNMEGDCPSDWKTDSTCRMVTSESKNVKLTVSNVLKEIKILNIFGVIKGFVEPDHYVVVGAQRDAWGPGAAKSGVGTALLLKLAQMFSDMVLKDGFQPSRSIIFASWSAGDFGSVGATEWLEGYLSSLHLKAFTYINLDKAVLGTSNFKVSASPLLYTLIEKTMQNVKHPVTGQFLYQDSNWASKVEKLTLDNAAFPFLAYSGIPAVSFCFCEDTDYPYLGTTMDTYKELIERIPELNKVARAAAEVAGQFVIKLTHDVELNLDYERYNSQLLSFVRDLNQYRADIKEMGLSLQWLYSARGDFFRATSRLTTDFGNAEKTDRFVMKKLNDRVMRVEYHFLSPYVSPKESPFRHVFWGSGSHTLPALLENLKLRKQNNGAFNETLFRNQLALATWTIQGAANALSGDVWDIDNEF

B1: 2A-3 #13 (bispecific antibody, human IgG1, kappa)
heavy: not shown
chain: DIVMTQAPLSLPVSLGDQASISCRSSQSIVHSNGNTYLEWYLQKPGQSPKLLIYKVSNRFSGVPDRFSGSGSGTDFTLKISRVEAEDLGIYYCFQGSHVPPTFGGGTKLEIKRTVAAPSVFIFPPSDEQLKSGTASVVCLLNNFYPREAKVQWKVDNALQSGNSQESVTEQDSKDSTYSLSSTLTLSKADYEKHKVYACEVTHQGLSSPVTKSFNRGECGGGGSGGGGSGGGGSDIQMTQSPSSVSASVGDRVTITCKSSQSLLYSTNQKNYLAWYQQKPGKAPKLLIYWASTRESGVPSRFSGSGSGTDFTLTISSLQPEDFATYYCQQYFIYPRTFGQGTKVEIKGGGGSGGGGSGGGGSEVQLVQSGAEVKKPGSSVKVSCKASGYIFTDYNMDWVRQAPGQGLEWIGDINPDADTTSYNEKFKGRATLTVDKSTSTAYMELSSLRSEDTAVYYCARGGYSGSSYYHPMDYWGQGTLVTVSSGGGGSGGGGSGGGGSGGGGSGGGGSDIVMTQAPLSLPVSLGDQASISCRSSQSIVHSNGNTYLEWYLQKPGQSPKLLIYKVSNRFSGVPDRFSGSGSGTDFTLKISRVEAEDLGIYYCFQGSHVPPTFGGGTKLEIKRTVAAPSVFIFPPSDEQLKSGTASVVCLLNNFYPREAKVQWKVDNALQSGNSQESVTEQDSKDSTYSLSSTLTLSKADYEKHKVYACEVTHQGLSSPVTKSFNRGEC
notes: also called Gen 2A construct #13; VL first
In the case of B1, the binding result in assay [1] is listed as “binds”.

B2: 2A-3 #6 (bispecific antibody, human IgG1, kappa)
heavy: not shown
chain: DIVMTQAPLSLPVSLGDQASISCRSSQSIVHSNGNTYLEWYLQKPGQSPKLLIYKVSNRFSGVPDRFSGSGSGTDFTLKISRVEAEDLGIYYCFQGSHVPPTFGGGTKLEIKRTVAAPSVFIFPPSDEQLKSGTASVVCLLNNFYPREAKVQWKVDNALQSGNSQESVTEQDSKDSTYSLSSTLTLSKADYEKHKVYACEVTHQGLSSPVTKSFNRGECGGGGSGGGGSGGGGSEVQLVQSGAEVKKPGSSVKVSCKASGYIFTDYNMDWVRQAPGQGLEWIGDINPDADTTSYNEKFKGRATLTVDKSTSTAYMELSSLRSEDTAVYYCARGGYSGSSYYHPMDYWGQGTLVTVSSGGGGSGGGGSGGGGSDIQMTQSPSSVSASVGDRVTITCKSSQSLLYSTNQKNYLAWYQQKPGKAPKLLIYWASTRESGVPSRFSGSGSGTDFTLTISSLQPEDFATYYCQQYFIYPRTFGQGTKVEIKGGGGSGGGGSGGGGSGGGGSGGGGSDIVMTQAPLSLPVSLGDQASISCRSSQSIVHSNGNTYLEWYLQKPGQSPKLLIYKVSNRFSGVPDRFSGSGSGTDFTLKISRVEAEDLGIYYCFQGSHVPPTFGGGTKLEIKRTVAAPSVFIFPPSDEQLKSGTASVVCLLNNFYPREAKVQWKVDNALQSGNSQESVTEQDSKDSTYSLSSTLTLSKADYEKHKVYACEVTHQGLSSPVTKSFNRGEC
notes: also called Gen 2A construct #6; VH first
Take B2: the binding result in assay [2] is listed as “binds”.

B3: 2A-3 #3 (bispecific antibody, human IgG1, kappa)
heavy: not shown
chain: DIVMTQAPLSLPVSLGDQASISCRSSQSIVHSNGNTYLEWYLQKPGQSPKLLIYKVSNRFSGVPDRFSGSGSGTDFTLKISRVEAEDLGIYYCFQGSHVPPTFGGGTKLEIKRTVAAPSVFIFPPSDEQLKSGTASVVCLLNNFYPREAKVQWKVDNALQSGNSQESVTEQDSKDSTYSLSSTLTLSKADYEKHKVYACEVTHQGLSSPVTKSFNRGECGGGGSGGGGSGGGGSEVQLVQSGAEVKKPGSSVKVSCKASGYIFTDYNMDWVRQAPGQGLEWIGDINPDADTTSYNEKFKGRATLTVDKSTSTAYMELSSLRSEDTAVYYCARGGYSGSSYYHPMDYWGQGTLVTVSSGGGGSGGGGSGGGGSDIQMTQSPSSVSASVGDRVTITCKSSQSLLYSTNQKNYLAWYQQKPGKAPKLLIYWASTRESGVPSRFSGSGSGTDFTLTISSLQPEDFATYYCQQYFIYPRTFGQGTKVEIKGGGGSGGGGSGGGGSGGGGSDIVMTQAPLSLPVSLGDQASISCRSSQSIVHSNGNTYLEWYLQKPGQSPKLLIYKVSNRFSGVPDRFSGSGSGTDFTLKISRVEAEDLGIYYCFQGSHVPPTFGGGTKLEIKRTVAAPSVFIFPPSDEQLKSGTASVVCLLNNFYPREAKVQWKVDNALQSGNSQESVTEQDSKDSTYSLSSTLTLSKADYEKHKVYACEVTHQGLSSPVTKSFNRGEC
notes: also called Gen 2A construct #3; VH first
As for B3, the binding result in assay [2] was “binds”.

B4: 2A-3 #5 (bispecific antibody, human IgG1, kappa)
heavy: not shown
chain: DIVMTQAPLSLPVSLGDQASISCRSSQSIVHSNGNTYLEWYLQKPGQSPKLLIYKVSNRFSGVPDRFSGSGSGTDFTLKISRVEAEDLGIYYCFQGSHVPPTFGGGTKLEIKRTVAAPSVFIFPPSDEQLKSGTASVVCLLNNFYPREAKVQWKVDNALQSGNSQESVTEQDSKDSTYSLSSTLTLSKADYEKHKVYACEVTHQGLSSPVTKSFNRGECGGGGSGGGGSEVQLVQSGAEVKKPGSSVKVSCKASGYIFTDYNMDWVRQAPGQGLEWIGDINPDADTTSYNEKFKGRATLTVDKSTSTAYMELSSLRSEDTAVYYCARGGYSGSSYYHPMDYWGQGTLVTVSSGGGGSGGGGSGGGGSDIQMTQSPSSVSASVGDRVTITCKSSQSLLYSTNQKNYLAWYQQKPGKAPKLLIYWASTRESGVPSRFSGSGSGTDFTLTISSLQPEDFATYYCQQYFIYPRTFGQGTKVEIKGGGGSGGGGSGGGGSGGGGSGGGGSDIVMTQAPLSLPVSLGDQASISCRSSQSIVHSNGNTYLEWYLQKPGQSPKLLIYKVSNRFSGVPDRFSGSGSGTDFTLKISRVEAEDLGIYYCFQGSHVPPTFGGGTKLEIKRTVAAPSVFIFPPSDEQLKSGTASVVCLLNNFYPREAKVQWKVDNALQSGNSQESVTEQDSKDSTYSLSSTLTLSKADYEKHKVYACEVTHQGLSSPVTKSFNRGEC
notes: also called Gen 2A construct #5; VH first
As for B4, the binding result in assay [2] was “binds”.

B5: 2A-3 #12 (bispecific antibody, human IgG1, kappa)
heavy: not shown
chain: DIVMTQAPLSLPVSLGDQASISCRSSQSIVHSNGNTYLEWYLQKPGQSPKLLIYKVSNRFSGVPDRFSGSGSGTDFTLKISRVEAEDLGIYYCFQGSHVPPTFGGGTKLEIKRTVAAPSVFIFPPSDEQLKSGTASVVCLLNNFYPREAKVQWKVDNALQSGNSQESVTEQDSKDSTYSLSSTLTLSKADYEKHKVYACEVTHQGLSSPVTKSFNRGECGGGGSGGGGSDIQMTQSPSSVSASVGDRVTITCKSSQSLLYSTNQKNYLAWYQQKPGKAPKLLIYWASTRESGVPSRFSGSGSGTDFTLTISSLQPEDFATYYCQQYFIYPRTFGQGTKVEIKGGGGSGGGGSGGGGSEVQLVQSGAEVKKPGSSVKVSCKASGYIFTDYNMDWVRQAPGQGLEWIGDINPDADTTSYNEKFKGRATLTVDKSTSTAYMELSSLRSEDTAVYYCARGGYSGSSYYHPMDYWGQGTLVTVSSGGGGSGGGGSGGGGSGGGGSGGGGSDIVMTQAPLSLPVSLGDQASISCRSSQSIVHSNGNTYLEWYLQKPGQSPKLLIYKVSNRFSGVPDRFSGSGSGTDFTLKISRVEAEDLGIYYCFQGSHVPPTFGGGTKLEIKRTVAAPSVFIFPPSDEQLKSGTASVVCLLNNFYPREAKVQWKVDNALQSGNSQESVTEQDSKDSTYSLSSTLTLSKADYEKHKVYACEVTHQGLSSPVTKSFNRGEC
notes: also called Gen 2A construct #12; VL first
Consider B5, for which the binding result in assay [1] is reported as “binds”.

B6: 2A-3 #8 (bispecific antibody, human IgG1, kappa)
heavy: not shown
chain: DIVMTQAPLSLPVSLGDQASISCRSSQSIVHSNGNTYLEWYLQKPGQSPKLLIYKVSNRFSGVPDRFSGSGSGTDFTLKISRVEAEDLGIYYCFQGSHVPPTFGGGTKLEIKRTVAAPSVFIFPPSDEQLKSGTASVVCLLNNFYPREAKVQWKVDNALQSGNSQESVTEQDSKDSTYSLSSTLTLSKADYEKHKVYACEVTHQGLSSPVTKSFNRGECGGGGSDIQMTQSPSSVSASVGDRVTITCKSSQSLLYSTNQKNYLAWYQQKPGKAPKLLIYWASTRESGVPSRFSGSGSGTDFTLTISSLQPEDFATYYCQQYFIYPRTFGQGTKVEIKGGGGSGGGGSGGGGSEVQLVQSGAEVKKPGSSVKVSCKASGYIFTDYNMDWVRQAPGQGLEWIGDINPDADTTSYNEKFKGRATLTVDKSTSTAYMELSSLRSEDTAVYYCARGGYSGSSYYHPMDYWGQGTLVTVSSGGGGSGGGGSGGGGSGGGGSDIVMTQAPLSLPVSLGDQASISCRSSQSIVHSNGNTYLEWYLQKPGQSPKLLIYKVSNRFSGVPDRFSGSGSGTDFTLKISRVEAEDLGIYYCFQGSHVPPTFGGGTKLEIKRTVAAPSVFIFPPSDEQLKSGTASVVCLLNNFYPREAKVQWKVDNALQSGNSQESVTEQDSKDSTYSLSSTLTLSKADYEKHKVYACEVTHQGLSSPVTKSFNRGEC
notes: also called Gen 2A construct #8; VL first
Turning to B6, the binding result in assay [2] is given as “binds”.

B7: 2A-3 #14 (bispecific antibody, human IgG1, kappa)
heavy: not shown
chain: DIVMTQAPLSLPVSLGDQASISCRSSQSIVHSNGNTYLEWYLQKPGQSPKLLIYKVSNRFSGVPDRFSGSGSGTDFTLKISRVEAEDLGIYYCFQGSHVPPTFGGGTKLEIKRTVAAPSVFIFPPSDEQLKSGTASVVCLLNNFYPREAKVQWKVDNALQSGNSQESVTEQDSKDSTYSLSSTLTLSKADYEKHKVYACEVTHQGLSSPVTKSFNRGECGGGGSGGGGSGGGGSGGGGSGGGGSDIQMTQSPSSVSASVGDRVTITCKSSQSLLYSTNQKNYLAWYQQKPGKAPKLLIYWASTRESGVPSRFSGSGSGTDFTLTISSLQPEDFATYYCQQYFIYPRTFGQGTKVEIKGGGGSGGGGSGGGGSEVQLVQSGAEVKKPGSSVKVSCKASGYIFTDYNMDWVRQAPGQGLEWIGDINPDADTTSYNEKFKGRATLTVDKSTSTAYMELSSLRSEDTAVYYCARGGYSGSSYYHPMDYWGQGTLVTVSSGGGGSGGGGSGGGGSGGGGSGGGGSDIVMTQAPLSLPVSLGDQASISCRSSQSIVHSNGNTYLEWYLQKPGQSPKLLIYKVSNRFSGVPDRFSGSGSGTDFTLKISRVEAEDLGIYYCFQGSHVPPTFGGGTKLEIKRTVAAPSVFIFPPSDEQLKSGTASVVCLLNNFYPREAKVQWKVDNALQSGNSQESVTEQDSKDSTYSLSSTLTLSKADYEKHKVYACEVTHQGLSSPVTKSFNRGEC
notes: also called Gen 2A construct #14; VL first
Consider B7, for which the binding result in assay [1] was “binds”.
